Laboratory results taken from article PMC10393190 (Genes & Development, 2022).

B9: Rec114 C-terminal (dimerization) domain, residues 375–428 (domain or fragment)
chain: EASPSEGLTIRVKNVNRNASRKISKRLIKEKLKDEEFMKWVNKVETVLNKMFEK

Experiments:
[1] = target: HisSUMO-PAIR1 coiled-coil domain (residues 140–310) (Z. mays) (Z. mays); experiment: SEC-MALS
[2] = target: HisSUMO-ASY2 coiled-coil domain (residues 55–275) (Sordaria macrospora) (Sordaria macrospora); experiment: SEC-MALS
[3] = target: B9; experiment: NMR
[4] = target: the molecule itself; experiment: SEC-MALS
[5] = target: T1, Mer2 (Saccharomyces cerevisiae, UniProt P21651 1-314); experiment: EMSA
T1 sequence: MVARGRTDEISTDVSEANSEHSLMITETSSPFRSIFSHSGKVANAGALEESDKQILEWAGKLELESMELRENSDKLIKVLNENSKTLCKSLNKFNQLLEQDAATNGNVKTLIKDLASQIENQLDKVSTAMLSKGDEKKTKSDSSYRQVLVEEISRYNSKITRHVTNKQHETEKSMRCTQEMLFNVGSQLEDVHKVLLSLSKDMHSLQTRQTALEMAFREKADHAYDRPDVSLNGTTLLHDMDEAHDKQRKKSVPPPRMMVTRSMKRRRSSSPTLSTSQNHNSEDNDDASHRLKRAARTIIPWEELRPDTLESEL

[6] = target: the molecule itself; experiment: NMR

Molecule: HisSUMO-PAIR1 coiled-coil domain (residues 140–310) (Z. mays) (domain or fragment)
- stoichiometry N [1]: 4

Molecule: HisSUMO-ASY2 coiled-coil domain (residues 55–275) (Sordaria macrospora) (domain or fragment)
- stoichiometry N [2]: 4

Molecule: MSRGKLEDMEQKETSEVDWIICFALIQSRNPTLWKRALSRKKG (domain or fragment) [Mei4 N-terminal domain, residues 1–43]
- binding result [3]: binds

B1: HisSUMO-Rec15 coiled-coil domain (residues 1–160) (S. pombe) (domain or fragment)
chain: MSYSVSAAQLWSRKLAMQAEDMQQHQKSQSNQIASCLAEMNTKQEVVNQTIGQLGRSISEVQQQNSQLVLQSLNQINMSMQQVALGIQDYASRINKLEQTMSDMNLKFEALQKEQNSNTKTLADCTSQMTIITKKLDAELKKRYMTTKQTRTVQNQTMPR
- stoichiometry N [4]: 4

B2: HisSUMO-PRD3 coiled-coil domain (residues 120–270) (A. thaliana) (domain or fragment)
chain: IGESKSQISEELEQRFGMMETSLSRFGMMLDSIQSDIMQANRGTKEVFLETERIQQKLTLQDTSLQQLRKEQADSKASLDGGVKFILEEFSKDPNQEKLQKILQMLTTIPEQVETALQKIQREICHTFTREIQVLASLRTPEPRVRVPTAP
- stoichiometry N [4]: 4

B3: Mer2 N-terminal half of the coiled coil (residues 41–136) (domain or fragment)
chain: KVANAGALEESDKQILEWAGKLELESMELRENSDKLIKVLNENSKTLCKSLNKFNQLLEQDAATNGNVKTLIKDLASQIENQLDKVSTAMLSKGDE
- stoichiometry N [4]: 2

B4: Y (cb095/cb098/cb101) (structured_DNA)
DNA 1: CTAGTATAGAGCCGGCGCGCCATGTCTAGATAGCGTTAGGTCTGCCGAATAGTACTACTCGGATCCCGAGCGAACCACGC
DNA 2: CACGGGTAACCGCGGGTACCGTGAAGATCTACTCGCGTCTCCTAACGCTATCTAGACATGGCGCGCCGGCTCTATACTAG
DNA 3: GCGTGGTTCGCTCGGGATCCGAGTAGTACTATTCGGCAGAAGACGCGAGTAGATCTTCACGGTACCCGCGGTTACCCGTG
- apparent K (half saturation) [5]: 10.6 ± 1.2 nM

B5: Mer2 (residues 161–224) (domain or fragment)
chain: TRHVTNKQHETEKSMRCTQEMLFNVGSQLEDVHKVLLSLSKDMHSLQTRQTALEMAFREKADHA
- stoichiometry N [4]: 3

B6: HisSUMO-IHO1 coiled-coil domain (residues 109–267) (M. musculus) (domain or fragment)
chain: GKSKGLSKQFEEKKRRATDQSDSETLHSFVSHFPEVINKLQTSVEKTEENLSSRSQSILDSVETIAKTFQETARVQHDLMVESVRDKGSMEQAILEIQRTCAARQAEFMEMKSTLKNLEVLVVEQTKNLQQFCDNLSQLIVPGILEELKKFTSVPQVAG
- stoichiometry N [4]: 4

B7: HisSUMO-tagged Mer2 coiled-coil domain (residues 41–224) (domain or fragment)
chain: KVANAGALEESDKQILEWAGKLELESMELRENSDKLIKVLNENSKTLCKSLNKFNQLLEQDAATNGNVKTLIKDLASQIENQLDKVSTAMLSKGDEKKTKSDSSYRQVLVEEISRYNSKITRHVTNKQHETEKSMRCTQEMLFNVGSQLEDVHKVLLSLSKDMHSLQTRQTALEMAFREKADHA
- stoichiometry N [4]: 4

B8: Mer2 C-terminal half of the coiled coil (residues 138–224) (domain or fragment)
chain: KTKSDSSYRQVLVEEISRYNSKITRHVTNKQHETEKSMRCTQEMLFNVGSQLEDVHKVLLSLSKDMHSLQTRQTALEMAFREKADHA
- stoichiometry N [4]: 4

Molecule: B9
- binding result [6]: binds
